# B1: Ribonuclease HI, P0A7Y4 (parent)
# chain: MLKQVEIFTDGSCLGNPGPGGYGAILRYRGREKTFSAGYTRTTNNRMELMAAIVALEALKEHCEVILSTDSQYVRQGITQWIHNWKKRGWKTADKKPVKNVDLWQRLDAALGQHQIKWEWVKGHAGHPENERCDELARAAAMNPTLEDTGYQVEV
# Variants of: B1
# Settings: Escherichia coli (strain K12), pH 5.5, CD, Potassium phosphate 2 mM, KF 5 mM, reversible: yes, structure 2RN2, whole UniProt chain shown; for ddG of mutation (higher = less stable) / denaturant m value / unfolding free energy: 25 °C, Urea; for Tm / change of melting temperature, mutant - wild type (higher = more stable): Thermal
Variant,ddG of mutation (higher = less stable),denaturant m value,unfolding free energy,Tm,"change of melting temperature, mutant - wild type (higher = more stable)"
MLKQVEIFTDGSCLGNPGPGGYGAILRYRGREKTFSAGYTRTTNNRMELMAAIVALEALKEHCEVILSTDSQYVRQGITQWIHNWKKRGWKTADKKPVKNVDLWGRLDAALGQHQIKWEWVKGHAGHPENERCDELARAAAMNPTLEDTGYQVEV [Q105G],2.2 kcal/mol,2.1 kcal/mol/M,7.5 kcal/mol,38.2 °C,-9.6 °C
MLKQVEIFTDGSCLGNPGPGGYGAILAYRGREKTFSAGYTRTTNNRMELMAAIVALEALKEHCEVILSTDSQYVRQGITQWIHNWKKRGWKTADKKPVKNVDLWQRLDAALGQHQIKWEWVKGHAGHPENERCDELARAAAMNPTLEDTGYQVEV [R27A],2.2 kcal/mol,2 kcal/mol/M,7.5 kcal/mol,42.2 °C,-5.6 °C
MLKQVEIFTDGSCLGNPGPGGYGAILRYRGREKTFSAGYTRTTNNRMELMAAAVALEALKEHCEVILSTDSQYVRQGITQWIHNWKKRGWKTADKKPVKNVDLWQRLDAALGQHQIKWEWVKGHAGHPENERCDELARAAAMNPTLEDTGYQVEV [I53A],–,–,–,35.7 °C,-12.1 °C
MLKQVEIFTAGSCLGNPGPGGYGAILRYRGREKTFSAGYTRTTNNRMELMAAIVALEALKEHCEVILSTDSQYVRQGITQWIHNWKKRGWKTADKKPVKNVDLWQRLDAALGQHQIKWEWVKGHAGHPENERCDELARAAAMNPTLEDTGYQVEV [D10A],-3.3 kcal/mol,2.1 kcal/mol/M,13 kcal/mol,62.6 °C,14.8 °C
